Here are results for eight molecules from patent US20220348632A1 (Novartis, published 2022).

The target of test [1] is T1, mouse Rae-1α over-expressed on CT26.WT cells (mouse, UniProt O08602 29-229).
T1 construct: whole, on cells; also called mouse RAE-1alpha; Rae-1a
T1 sequence (looked up): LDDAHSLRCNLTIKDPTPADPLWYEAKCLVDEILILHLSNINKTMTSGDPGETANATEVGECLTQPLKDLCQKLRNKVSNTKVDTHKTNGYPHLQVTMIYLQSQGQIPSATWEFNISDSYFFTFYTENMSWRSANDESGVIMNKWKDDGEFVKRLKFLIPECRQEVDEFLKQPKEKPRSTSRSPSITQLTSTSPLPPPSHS
The test is described as follows: flow cytometry titration on CT26.WT cells over-expressing mouse Rae-1α; R-PE anti-mouse Fc detection, mean R-PE fluorescence. As for the experimental part: (§1) A […] cell sorting (FACS) based binding assay against mouse NKG2D-ligands expressed at the cell surface was performed to characterize the binding of the dimeric mouse NKG2D-Fc variants fused either to N-terminus or to C-terminus of the Fc region with no peptide linker or with different peptide linker lengths (10, 20 or 30 amino acids).
(§2) Half maximal effective concentration (EC50) in nM was determined on two different engineered stable CT26.WT cell lines, over-expressing at their surface the recombinant ligands mouse Rae-1α and mouse Rae-1E. The cells were incubated with the different concentrations of protein in DPBS supplemented with 5% FCS and 0.04% NaN₃ (FACS buffer). […] For each sample, the mean of the resulting fluorescence of alive gated cells was extracted using the Cell Quest Pro software (BD Biosciences).

Test [2] deals with T2, mouse Rae-1ε over-expressed on CT26.WT cells (mouse, UniProt Q9CZQ6 29-225).
T2 construct: whole, on cells; also called mouse RAE-1 epsilon; Rae-1E
T2 sequence (looked up): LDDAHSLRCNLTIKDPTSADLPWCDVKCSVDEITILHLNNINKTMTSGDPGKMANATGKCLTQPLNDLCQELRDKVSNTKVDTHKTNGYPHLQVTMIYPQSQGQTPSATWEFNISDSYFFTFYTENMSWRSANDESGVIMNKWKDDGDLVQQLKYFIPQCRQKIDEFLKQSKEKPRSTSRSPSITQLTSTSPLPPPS
The test is described as follows: flow cytometry titration on CT26.WT cells over-expressing mouse Rae-1ε; R-PE anti-mouse Fc detection, mean R-PE fluorescence. As for the experimental part:
as §1, §2

B1: MM5, mFc2-mNKG2D (aa94-232)-RS(G3S)2-mNKG2D (aa94-232) (Fc fusion)
chain: ISAMVRSPRGPTIKPCPPCKCPAPNLLGGPSVFIFPPKIKDVLMISLSPIVTCVVVDVSEDDPDVQISWFVNNVEVHTAQTQTHREDYNSTLRVVSALPIQHQDWMSGKEFKCKVNNKDLPAPIERTISKPKGSVRAPQVYVLPPPEEEMTKKQVTLTCMVTDFMPEDIYVEWTNNGKTELNYKNTEPVLDSDGSYFMYSKLRVEKKNWVERNSYSCSVVHEGLHNHHTTKSFSRTPGKFQPVLCNKEVPVSSREGYCGPCPNNWICHRNNCYQFFNEEKTWNQSQASCLSQNSSLLKIYSKEEQDFLKLVKSYHWMGLVQIPANGSWQWEDGSSLSYNQLTLVEIPKGSCAVYGSSFKAYTEDCANLNTYICMKRAVRSGGGSGGGSFQPVLCNKEVPVSSREGYCGPCPNNWICHRNNCYQFFNEEKTWNQSQASCLSQNSSLLKIYSKEEQDFLKLVKSYHWMGLVQIPANGSWQWEDGSSLSYNQLTLVEIPKGSCAVYGSSFKAYTEDCANLNTYICMKRAV
notes: also called C-terminal, no linker
For B1, the EC50 amounted to 0.738 nM in test [1] and 3.02 nM in test [2].

B2: MM3, mNKG2D (aa94-232)-RS(G3S)2-mNKG2D (aa94-232)-(G4S)4-mFc2 (Fc fusion)
chain: FQPVLCNKEVPVSSREGYCGPCPNNWICHRNNCYQFFNEEKTWNQSQASCLSQNSSLLKIYSKEEQDFLKLVKSYHWMGLVQIPANGSWQWEDGSSLSYNQLTLVEIPKGSCAVYGSSFKAYTEDCANLNTYICMKRAVRSGGGSGGGSFQPVLCNKEVPVSSREGYCGPCPNNWICHRNNCYQFFNEEKTWNQSQASCLSQNSSLLKIYSKEEQDFLKLVKSYHWMGLVQIPANGSWQWEDGSSLSYNQLTLVEIPKGSCAVYGSSFKAYTEDCANLNTYICMKRAVGGGGSGGGGSGGGGSGGGGSISAMVRSPRGPTIKPCPPCKCPAPNLLGGPSVFIFPPKIKDVLMISLSPIVTCVVVDVSEDDPDVQISWFVNNVEVHTAQTQTHREDYNSTLRVVSALPIQHQDWMSGKEFKCKVNNKDLPAPIERTISKPKGSVRAPQVYVLPPPEEEMTKKQVTLTCMVTDFMPEDIYVEWTNNGKTELNYKNTEPVLDSDGSYFMYSKLRVEKKNWVERNSYSCSVVHEGLHNHHTTKSFSRTPGK
notes: also called N-terminal, 20 aa linker
As for B2, the EC50 came out at 0.495 nM in test [1] and 1.99 nM in test [2].

B3: MM4, mNKG2D (aa94-232)-RS(G3S)2-mNKG2D (aa94-232)-(G4S)6-mFc2 (Fc fusion)
chain: FQPVLCNKEVPVSSREGYCGPCPNNWICHRNNCYQFFNEEKTWNQSQASCLSQNSSLLKIYSKEEQDFLKLVKSYHWMGLVQIPANGSWQWEDGSSLSYNQLTLVEIPKGSCAVYGSSFKAYTEDCANLNTYICMKRAVRSGGGSGGGSFQPVLCNKEVPVSSREGYCGPCPNNWICHRNNCYQFFNEEKTWNQSQASCLSQNSSLLKIYSKEEQDFLKLVKSYHWMGLVQIPANGSWQWEDGSSLSYNQLTLVEIPKGSCAVYGSSFKAYTEDCANLNTYICMKRAVGGGGSGGGGSGGGGSGGGGSGGGGSGGGGSISAMVRSPRGPTIKPCPPCKCPAPNLLGGPSVFIFPPKIKDVLMISLSPIVTCVVVDVSEDDPDVQISWFVNNVEVHTAQTQTHREDYNSTLRVVSALPIQHQDWMSGKEFKCKVNNKDLPAPIERTISKPKGSVRAPQVYVLPPPEEEMTKKQVTLTCMVTDFMPEDIYVEWTNNGKTELNYKNTEPVLDSDGSYFMYSKLRVEKKNWVERNSYSCSVVHEGLHNHHTTKSFSRTPGK
notes: also called N-terminal, 30 aa linker
Regarding B3, the EC50 in test [1] was determined as 0.894 nM; in test [2] it was 1.65 nM.

B4: MM6, mFc2-(G4S)2-mNKG2D (aa94-232)-RS(G3S)2-mNKG2D (aa94-232) (Fc fusion)
chain: ISAMVRSPRGPTIKPCPPCKCPAPNLLGGPSVFIFPPKIKDVLMISLSPIVTCVVVDVSEDDPDVQISWFVNNVEVHTAQTQTHREDYNSTLRVVSALPIQHQDWMSGKEFKCKVNNKDLPAPIERTISKPKGSVRAPQVYVLPPPEEEMTKKQVTLTCMVTDFMPEDIYVEWTNNGKTELNYKNTEPVLDSDGSYFMYSKLRVEKKNWVERNSYSCSVVHEGLHNHHTTKSFSRTPGKGGGGSGGGGSFQPVLCNKEVPVSSREGYCGPCPNNWICHRNNCYQFFNEEKTWNQSQASCLSQNSSLLKIYSKEEQDFLKLVKSYHWMGLVQIPANGSWQWEDGSSLSYNQLTLVEIPKGSCAVYGSSFKAYTEDCANLNTYICMKRAVRSGGGSGGGSFQPVLCNKEVPVSSREGYCGPCPNNWICHRNNCYQFFNEEKTWNQSQASCLSQNSSLLKIYSKEEQDFLKLVKSYHWMGLVQIPANGSWQWEDGSSLSYNQLTLVEIPKGSCAVYGSSFKAYTEDCANLNTYICMKRAV
notes: also called C-terminal, 10 aa linker
Turning to B4, the half-maximal effective concentration (EC50) was 1.15 nM in test [1] and 0.668 nM in test [2].

B5: MM2, mNKG2D (aa94-232)-RS(G3S)2-mNKG2D (aa94-232)-(G4S)2-mFc2 (Fc fusion)
chain: FQPVLCNKEVPVSSREGYCGPCPNNWICHRNNCYQFFNEEKTWNQSQASCLSQNSSLLKIYSKEEQDFLKLVKSYHWMGLVQIPANGSWQWEDGSSLSYNQLTLVEIPKGSCAVYGSSFKAYTEDCANLNTYICMKRAVRSGGGSGGGSFQPVLCNKEVPVSSREGYCGPCPNNWICHRNNCYQFFNEEKTWNQSQASCLSQNSSLLKIYSKEEQDFLKLVKSYHWMGLVQIPANGSWQWEDGSSLSYNQLTLVEIPKGSCAVYGSSFKAYTEDCANLNTYICMKRAVGGGGSGGGGSISAMVRSPRGPTIKPCPPCKCPAPNLLGGPSVFIFPPKIKDVLMISLSPIVTCVVVDVSEDDPDVQISWFVNNVEVHTAQTQTHREDYNSTLRVVSALPIQHQDWMSGKEFKCKVNNKDLPAPIERTISKPKGSVRAPQVYVLPPPEEEMTKKQVTLTCMVTDFMPEDIYVEWTNNGKTELNYKNTEPVLDSDGSYFMYSKLRVEKKNWVERNSYSCSVVHEGLHNHHTTKSFSRTPGK
notes: also called N-terminal, 10 aa linker
With B5, the EC50 in test [1] came to 1.27 nM; in test [2], 1.87 nM.

B6: MM7, mFc2-(G4S)4-mNKG2D (aa94-232)-RS(G3S)2-mNKG2D (aa94-232) (Fc fusion)
chain: ISAMVRSPRGPTIKPCPPCKCPAPNLLGGPSVFIFPPKIKDVLMISLSPIVTCVVVDVSEDDPDVQISWFVNNVEVHTAQTQTHREDYNSTLRVVSALPIQHQDWMSGKEFKCKVNNKDLPAPIERTISKPKGSVRAPQVYVLPPPEEEMTKKQVTLTCMVTDFMPEDIYVEWTNNGKTELNYKNTEPVLDSDGSYFMYSKLRVEKKNWVERNSYSCSVVHEGLHNHHTTKSFSRTPGKGGGGSGGGGSGGGGSGGGGSFQPVLCNKEVPVSSREGYCGPCPNNWICHRNNCYQFFNEEKTWNQSQASCLSQNSSLLKIYSKEEQDFLKLVKSYHWMGLVQIPANGSWQWEDGSSLSYNQLTLVEIPKGSCAVYGSSFKAYTEDCANLNTYICMKRAVRSGGGSGGGSFQPVLCNKEVPVSSREGYCGPCPNNWICHRNNCYQFFNEEKTWNQSQASCLSQNSSLLKIYSKEEQDFLKLVKSYHWMGLVQIPANGSWQWEDGSSLSYNQLTLVEIPKGSCAVYGSSFKAYTEDCANLNTYICMKRAV
notes: also called C-terminal variant with a linker length of 20 aa
B6: the EC50 in test [1] came to 13 nM; in test [2], 1.5 nM.

B7: MM1, mNKG2D (aa94-232)-RS(G3S)2-mNKG2D (aa94-232)-mFc2 (Fc fusion)
chain: FQPVLCNKEVPVSSREGYCGPCPNNWICHRNNCYQFFNEEKTWNQSQASCLSQNSSLLKIYSKEEQDFLKLVKSYHWMGLVQIPANGSWQWEDGSSLSYNQLTLVEIPKGSCAVYGSSFKAYTEDCANLNTYICMKRAVRSGGGSGGGSFQPVLCNKEVPVSSREGYCGPCPNNWICHRNNCYQFFNEEKTWNQSQASCLSQNSSLLKIYSKEEQDFLKLVKSYHWMGLVQIPANGSWQWEDGSSLSYNQLTLVEIPKGSCAVYGSSFKAYTEDCANLNTYICMKRAVISAMVRSPRGPTIKPCPPCKCPAPNLLGGPSVFIFPPKIKDVLMISLSPIVTCVVVDVSEDDPDVQISWFVNNVEVHTAQTQTHREDYNSTLRVVSALPIQHQDWMSGKEFKCKVNNKDLPAPIERTISKPKGSVRAPQVYVLPPPEEEMTKKQVTLTCMVTDFMPEDIYVEWTNNGKTELNYKNTEPVLDSDGSYFMYSKLRVEKKNWVERNSYSCSVVHEGLHNHHTTKSFSRTPGK
notes: also called mouse NKG2D-Fc surrogate construct, N-terminal, no linker
With B7, the figures for the EC50 in test [1] and in test [2] were 1.05 nM and 2.56 nM, respectively.

B8: MM8, mFc2-(G4S)6-mNKG2D (aa94-232)-RS(G3S)2-mNKG2D (aa94-232) (Fc fusion)
chain: ISAMVRSPRGPTIKPCPPCKCPAPNLLGGPSVFIFPPKIKDVLMISLSPIVTCVVVDVSEDDPDVQISWFVNNVEVHTAQTQTHREDYNSTLRVVSALPIQHQDWMSGKEFKCKVNNKDLPAPIERTISKPKGSVRAPQVYVLPPPEEEMTKKQVTLTCMVTDFMPEDIYVEWTNNGKTELNYKNTEPVLDSDGSYFMYSKLRVEKKNWVERNSYSCSVVHEGLHNHHTTKSFSRTPGKGGGGSGGGGSGGGGSGGGGSGGGGSGGGGSFQPVLCNKEVPVSSREGYCGPCPNNWICHRNNCYQFFNEEKTWNQSQASCLSQNSSLLKIYSKEEQDFLKLVKSYHWMGLVQIPANGSWQWEDGSSLSYNQLTLVEIPKGSCAVYGSSFKAYTEDCANLNTYICMKRAVRSGGGSGGGSFQPVLCNKEVPVSSREGYCGPCPNNWICHRNNCYQFFNEEKTWNQSQASCLSQNSSLLKIYSKEEQDFLKLVKSYHWMGLVQIPANGSWQWEDGSSLSYNQLTLVEIPKGSCAVYGSSFKAYTEDCANLNTYICMKRAV
notes: also called C-terminal variant with a linker length of 30 aa
As for B8, the results for the EC50 in test [1] and in test [2] were 15.6 nM and 0.624 nM, respectively.
